Assay results reported in PMC8130932 (2021).

What was measured:
[1] = target: RBD-6H (340-538; NITN.GPKK), biotinylated (SARS-CoV-2)
[2] = target: RBD-VLP (Spycatcher-mi3 VLP-particles conjugated with Spytagged-RBD recombinant protein) (SARS-CoV-2); test: ELISA

B1: FD 5D (antibody, V domains shown)
VH: EVQLVESGGGLVQPGGSLRLSCAASGFTFSSYSMNWVRQAPGKGLEWVSYISSSSSTIYYADPVKGRFTISRDNAKNSLYLQMNSLRAEDTAVYYCASPGGITAAGTSVLFGYYGMDVWGQGTMVTVSS
VL: not shown
- IC50 [1]: 34 nM

B2: FD 11A (antibody, V domains shown)
VH: EVQLVESGGGVVQPGRSLRLSCAASGFTFSSYGMHWVRQAPGKGLEWVAVIWYDGSNKYYADSVKGRFTISRDNSKNTLYLQMNSLRAEDTAVYYCAKGPDILTGYYNYYYYGMDVWGQGTMVTVSS
VL: QSVLTQPPSVSGAPGQRVTISCTGSSSNIGAGYDVHWYQQLPGTAPKLLIYGNSNRPSGVPDRFSGSKSGTSASLAITGLQAEDEADYYCQSYDSSLSGFYVVFGGGTKLTVL
- IC50 [1]: 164 nM

B3: FI 1C (antibody, V domains shown)
VH: EVQLVESGGGLVKPGGSLRLSCAASGFTFSDYYMSWIRQAPGKGLEWVSYISSSGSTIYYADSVKGRFTISRDNAKNSLYLQMNSLRAEDTAVYYCARRSNRFLIAFDIWGQGTMVTVSS
VL: QSALTQPASVSGSPGQTITISCTGTSSDVGGYNYVSWYQQHPGKAPKLMIYEVSNRPSGVSNRFSGSKSGNTASLTISGLQAEDEADYYCSSYTSSSTLVVFGGGTKLTVP
- IC50 [1]: 109 nM
- IC50 [2]: 3 nM

B4: EY 6A (antibody, V domains shown)
VH: EVQLVESGGGVVQPGRSLRLSCAASAFTFSSYDMHWVRQAPGKGLEWVAVISYDGSNKYYADSVKGRFTISRDNSKNTLYLQMNSLRAEDTAVYYCAKDGGKLWVYYFDYWGQGTLVTVSS
VL: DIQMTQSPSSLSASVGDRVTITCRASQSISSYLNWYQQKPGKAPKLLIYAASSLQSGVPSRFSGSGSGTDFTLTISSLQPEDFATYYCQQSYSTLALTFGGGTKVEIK
- IC50 [1]: 189 nM

B5: FI 3A (antibody, V domains shown)
VH: EVQLLESGGGLIQPGGSLRLSCAASGFTVSSNYMSWVRQAPGKGLEWVSVIYSGGSTYYADSVKGRFTISRDNSKNTLYLQMNSLRAEDTAVYYCARDHVRPGMNIWGQGTMVTVSS
VL: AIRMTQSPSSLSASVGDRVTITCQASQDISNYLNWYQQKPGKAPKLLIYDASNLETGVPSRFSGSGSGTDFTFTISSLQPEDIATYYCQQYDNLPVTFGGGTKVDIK
- IC50 [1]: 8 nM
- IC50 [2]: 3 nM
